Results reported in patent publication US5616559, “Papillomavirus E2 trans-activation repressors” (Biogen, Inc., dated 1997).

B1: BPV1 E2 mutant 333V, full-length form (other)
chain: METACERLHVAQETQMQLIEKSSDKLQDHILYWTAVRTENTLLYAARKKGVTVLGHCRVPHSVVCQERAKQAIEMQLSLQELSKTEFGDEPWSLLDTSWDRYMSEPKRCFKKGARVVEVEFDGNASNTNWYTVYSNLYMRTEDGWQLAKAGADGTGLYYCTMAGAGRIYYSRFGDEAARFSTTGHYSVRDQDRVYAGVSSTSSDFRDRPDGVWVASEGPEGDPAGKEAEPAQPVSSLLGSPACGPIRAGLGWVRDGPRSHPYNFPAGSGGSILRSSSTPVQGTVPVDLASRQEEEEQSPDSTEEEPVTLPRRTTNDGFHLLKAGGSCFALISVTANQVKCYRFRVKKNHRHRYENCTTTWFTVADNGAERQGQAQILITFGSPSQRQDFLKHVPLPPGMNISGFTASLDF
B2: BPV1 E2 mutant 333V in the E2 repressor format (C-terminal 249 amino acids) (other)
chain: MAGAGRIYYSRFGDEAARFSTTGHYSVRDQDRVYAGVSSTSSDFRDRPDGVWVASEGPEGDPAGKEAEPAQPVSSLLGSPACGPIRAGLGWVRDGPRSHPYNFPAGSGGSILRSSSTPVQGTVPVDLASRQEEEEQSPDSTEEEPVTLPRRTTNDGFHLLKAGGSCFALISVTANQVKCYRFRVKKNHRHRYENCTTTWFTVADNGAERQGQAQILITFGSPSQRQDFLKHVPLPPGMNISGFTASLDF
B3: BPV1 E2 mutant 386W in the E2 repressor format (C-terminal 249 amino acids) (other)
chain: MAGAGRIYYSRFGDEAARFSTTGHYSVRDQDRVYAGVSSTSSDFRDRPDGVWVASEGPEGDPAGKEAEPAQPVSSLLGSPACGPIRAGLGWVRDGPRSHPYNFPAGSGGSILRSSSTPVQGTVPVDLASRQEEEEQSPDSTEEEPVTLPRRTTNDGFHLLKAGGSCFALISGTANQVKCYRFRVKKNHRHRYENCTTTWFTVADNGAERQGQAQILITFGSPSQWQDFLKHVPLPPGMNISGFTASLDF
B4: BPV1 E2 mutant 340R in the E2 repressor format (C-terminal 249 amino acids) (other)
chain: MAGAGRIYYSRFGDEAARFSTTGHYSVRDQDRVYAGVSSTSSDFRDRPDGVWVASEGPEGDPAGKEAEPAQPVSSLLGSPACGPIRAGLGWVRDGPRSHPYNFPAGSGGSILRSSSTPVQGTVPVDLASRQEEEEQSPDSTEEEPVTLPRRTTNDGFHLLKAGGSCFALISGTANQVKRYRFRVKKNHRHRYENCTTTWFTVADNGAERQGQAQILITFGSPSQRQDFLKHVPLPPGMNISGFTASLDF
B5: BPV1 E2 mutant 399I in the E2 repressor format (C-terminal 249 amino acids) (other)
chain: MAGAGRIYYSRFGDEAARFSTTGHYSVRDQDRVYAGVSSTSSDFRDRPDGVWVASEGPEGDPAGKEAEPAQPVSSLLGSPACGPIRAGLGWVRDGPRSHPYNFPAGSGGSILRSSSTPVQGTVPVDLASRQEEEEQSPDSTEEEPVTLPRRTTNDGFHLLKAGGSCFALISGTANQVKCYRFRVKKNHRHRYENCTTTWFTVADNGAERQGQAQILITFGSPSQRQDFLKHVPLPPGINISGFTASLDF
B6: BPV1 E2 mutant 340S in the E2 repressor format (C-terminal 249 amino acids) (other)
chain: MAGAGRIYYSRFGDEAARFSTTGHYSVRDQDRVYAGVSSTSSDFRDRPDGVWVASEGPEGDPAGKEAEPAQPVSSLLGSPACGPIRAGLGWVRDGPRSHPYNFPAGSGGSILRSSSTPVQGTVPVDLASRQEEEEQSPDSTEEEPVTLPRRTTNDGFHLLKAGGSCFALISGTANQVKSYRFRVKKNHRHRYENCTTTWFTVADNGAERQGQAQILITFGSPSQRQDFLKHVPLPPGMNISGFTASLDF
B7: BPV1 E2 mutant 360S in the E2 repressor format (C-terminal 249 amino acids) (other)
chain: MAGAGRIYYSRFGDEAARFSTTGHYSVRDQDRVYAGVSSTSSDFRDRPDGVWVASEGPEGDPAGKEAEPAQPVSSLLGSPACGPIRAGLGWVRDGPRSHPYNFPAGSGGSILRSSSTPVQGTVPVDLASRQEEEEQSPDSTEEEPVTLPRRTTNDGFHLLKAGGSCFALISGTANQVKCYRFRVKKNHRHRYENCTTTSFTVADNGAERQGQAQILITFGSPSQRQDFLKHVPLPPGMNISGFTASLDF
B8: BPV1 E2 mutant 339M in the E2 repressor format (C-terminal 249 amino acids) (other)
chain: MAGAGRIYYSRFGDEAARFSTTGHYSVRDQDRVYAGVSSTSSDFRDRPDGVWVASEGPEGDPAGKEAEPAQPVSSLLGSPACGPIRAGLGWVRDGPRSHPYNFPAGSGGSILRSSSTPVQGTVPVDLASRQEEEEQSPDSTEEEPVTLPRRTTNDGFHLLKAGGSCFALISGTANQVMCYRFRVKKNHRHRYENCTTTWFTVADNGAERQGQAQILITFGSPSQRQDFLKHVPLPPGMNISGFTASLDF
B9: BPV1 E2 mutant 340G in the E2 repressor format (C-terminal 249 amino acids) (other)
chain: MAGAGRIYYSRFGDEAARFSTTGHYSVRDQDRVYAGVSSTSSDFRDRPDGVWVASEGPEGDPAGKEAEPAQPVSSLLGSPACGPIRAGLGWVRDGPRSHPYNFPAGSGGSILRSSSTPVQGTVPVDLASRQEEEEQSPDSTEEEPVTLPRRTTNDGFHLLKAGGSCFALISGTANQVKGYRFRVKKNHRHRYENCTTTWFTVADNGAERQGQAQILITFGSPSQRQDFLKHVPLPPGMNISGFTASLDF
B10: BPV1 E2 mutant 340F in the E2 repressor format (C-terminal 249 amino acids) (other)
chain: MAGAGRIYYSRFGDEAARFSTTGHYSVRDQDRVYAGVSSTSSDFRDRPDGVWVASEGPEGDPAGKEAEPAQPVSSLLGSPACGPIRAGLGWVRDGPRSHPYNFPAGSGGSILRSSSTPVQGTVPVDLASRQEEEEQSPDSTEEEPVTLPRRTTNDGFHLLKAGGSCFALISGTANQVKFYRFRVKKNHRHRYENCTTTWFTVADNGAERQGQAQILITFGSPSQRQDFLKHVPLPPGMNISGFTASLDF
B11: BPV1 E2 mutant 337L in the E2 repressor format (C-terminal 249 amino acids) (other)
chain: MAGAGRIYYSRFGDEAARFSTTGHYSVRDQDRVYAGVSSTSSDFRDRPDGVWVASEGPEGDPAGKEAEPAQPVSSLLGSPACGPIRAGLGWVRDGPRSHPYNFPAGSGGSILRSSSTPVQGTVPVDLASRQEEEEQSPDSTEEEPVTLPRRTTNDGFHLLKAGGSCFALISGTANLVKCYRFRVKKNHRHRYENCTTTWFTVADNGAERQGQAQILITFGSPSQRQDFLKHVPLPPGMNISGFTASLDF
B12: BPV1 E2 mutant 344L in the E2 repressor format (C-terminal 249 amino acids) (other)
chain: MAGAGRIYYSRFGDEAARFSTTGHYSVRDQDRVYAGVSSTSSDFRDRPDGVWVASEGPEGDPAGKEAEPAQPVSSLLGSPACGPIRAGLGWVRDGPRSHPYNFPAGSGGSILRSSSTPVQGTVPVDLASRQEEEEQSPDSTEEEPVTLPRRTTNDGFHLLKAGGSCFALISGTANQVKCYRFLVKKNHRHRYENCTTTWFTVADNGAERQGQAQILITFGSPSQRQDFLKHVPLPPGMNISGFTASLDF
B13: BPV1 E2 mutant 340Y in the E2 repressor format (C-terminal 249 amino acids) (other)
chain: MAGAGRIYYSRFGDEAARFSTTGHYSVRDQDRVYAGVSSTSSDFRDRPDGVWVASEGPEGDPAGKEAEPAQPVSSLLGSPACGPIRAGLGWVRDGPRSHPYNFPAGSGGSILRSSSTPVQGTVPVDLASRQEEEEQSPDSTEEEPVTLPRRTTNDGFHLLKAGGSCFALISGTANQVKYYRFRVKKNHRHRYENCTTTWFTVADNGAERQGQAQILITFGSPSQRQDFLKHVPLPPGMNISGFTASLDF
B14: BPV1 E2 repressor with a tryptophan to asparagine mutation at amino acid residue 360 (other)
chain: MAGAGRIYYSRFGDEAARFSTTGHYSVRDQDRVYAGVSSTSSDFRDRPDGVWVASEGPEGDPAGKEAEPAQPVSSLLGSPACGPIRAGLGWVRDGPRSHPYNFPAGSGGSILRSSSTPVQGTVPVDLASRQEEEEQSPDSTEEEPVTLPRRTTNDGFHLLKAGGSCFALISGTANQVKCYRFRVKKNHRHRYENCTTTNFTVADNGAERQGQAQILITFGSPSQRQDFLKHVPLPPGMNISGFTASLDF
B15: E2-123 (methionine, valine and the C-terminal 121 amino acids of HPV16 E2) (other)
chain: MVPDTGNPCHTTKLLHRDSVDSAPILTAFNSSHKGRINCNSNTTPIVHLKGDANTLKCLRYRFKKHCTLYTAVSSTWHWTGHNVKHKSAIVTLTYDSEWQRDQFLSQVKIPKTITVSTGFMSI
B16: E2-85 (methionine, alanine and the C-terminal 83 amino acids of HPV16 E2) (other)
chain: MASNTTPIVHLKGDANTLKCLRYRFKKHCTLYTAVSSTWHWTGHNVKHKSAIVTLTYDSEWQRDQFLSQVKIPKTITVSTGFMSI

The molecules below were run against full-length native BPV1 E2 trans-activator protein (bovine papillomavirus type 1 (BPV1)) (UniProt P03122) (assay: not given).

Molecule | Repression as % decrease in trans-activation by E2 [%]
BPV1 E2 mutant 402* in the E2 repressor format (from UniProt P03122) | 45.2
BPV1 E2 mutant 370I in the E2 repressor format (C-terminal 249 amino acids) (from UniProt P03122) | 66.1
BPV1 E2 mutant 316Y in the E2 repressor format (C-terminal 249 amino acids) (from UniProt P03122) | 8
BPV1 E2 mutant 317STOP in the E2 repressor format (from UniProt P03122) | 7.1
BPV1 E2 mutant 411* in the E2 repressor format (from UniProt P03122) | 4.5
BPV1 E2 mutant 408* in the E2 repressor format (from UniProt P03122) | 59.5
BPV1 E2 mutant 366Y/376L in the E2 repressor format (C-terminal 249 amino acids) (from UniProt P03122) | 16.1
BPV1 E2 mutant 374S/375L/391I (3SLI) in the E2 repressor format (C-terminal 249 amino acids) (from UniProt P03122) | 39

Target: the molecule itself
Assay: homodimerization; UV cross-linking, SDS-PAGE, immunoblot

Molecule | binding result
B1 | no binding

The molecules below were run against full-length native BPV1 E2 trans-activator protein (bovine papillomavirus type 1 (BPV1), UniProt P03122) (assay: cell-based or functional assay).

Molecule | Repression as % decrease in trans-activation by E2 [%]
B2 | 0
B3 | 81.4
B4 | 95.6
B5 | 86.9
B6 | 89.6
B7 | 32.3
B8 | 76.2
B9 | 91.7
B10 | 86.1
B11 | 90.4
B12 | 82.6
B13 | 93.5

Target: full-length native BPV1 E2 trans-activator protein (bovine papillomavirus type 1 (BPV1)) (UniProt P03122)
Assay: not given
Remark: another data set of the same source

Molecule | % repression of E2-dependent trans-activation (CAT or hGH reporter) [%]
native BPV1 E2 repressor (C-terminal 249 amino acids of the BPV1 E2 protein) (from UniProt P03122) | > 80

The molecules below were run against full-length HPV16 E2 protein (human papillomavirus type 16 (HPV16)) (UniProt P03120) (assay: not given).

Molecule | % REPRESSION (hGH reporter) [%]
native BPV1 E2 repressor (C-terminal 249 amino acids of the BPV1 E2 protein) (from UniProt P03122) | 100

What follows are molecules tested against full-length HPV16 E2 protein (human papillomavirus type 16 (HPV16), UniProt P03120) (assay: cell-based or functional assay).

Molecule | % REPRESSION (hGH reporter) [%]
B14 | 0
B15 | 100
B16 | 87.2
